Results: the nanobody polyreactivity screen of Harvey et al. (2022)

Assay: yeast display, Sf9 membrane polyspecificity reagent, FACS + sequencing; frameworks hold sequencing errors
Summary of the method: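 After 36–48 hours of galactose induction, yeast (Saccharomyces cerevisiae BJ5465) displaying a synthetic nanobody library were stained at 4 °C for 1 hour with 10% biotinylated, detergent-solubilized Sf9 membrane reagent. Streptavidin microbeads enriched the stained cells before FACS sorting into low and high (top ~1%) gates on anti-HA and streptavidin fluorescence. Each clone's polyreactivity label reflects its gate of origin.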

Sequence | polyreactivity (PSR sort gate)
QVQLVESGGGLVQAGGSLRLSCAASGFTFGHYVMGWYRQAPGKERELVAAITLSGGGTYYADSVKGRFTISRDNAKNTVYLQMNSLKTEDTAVYYCAAVRRAEEFDYWGQGTQVTVSS | low polyreactivity
QVQLVESGGGLVQAGGSLRLSCAASGSIFLWNAKGWYRQAPGKERELVAAISSGTSTNYADSVKGRFTISRDNAKNTVYLQMNSLKPEDTAVYYCAARGRKNQRRYGYWGQGTQVTVSS | low polyreactivity
QVQLVESGGGLVQAGGSLRLSCAASGSTFPFYAMGWYRQAPGKERELVAAITSGGSTYADSVKGRFTISRDNAKNTVYLQMNSLKPEDTAVYYCAASWPRWCRFGYWGQGTQVTVSS | low polyreactivity
QVQLVESGGGLVQAGGSLRLSCAASGFILIQYAMGWYRQAPGKERELVAAITWSDTSTNYADSVKGRFTISRDNAKNTVYLQMNSLKPEDTAVYYCAAYPVRYYNQYDYWGQGTQVTVSS | low polyreactivity
QVQLVESGGGLVQAGGSLRLSCADSGFTFSSYAMGWYRQAPGKDRELVAAISTRGGSTYYADSVKGRFTISRDYANKTVYLQMNSLKPEDTAVYYCATGGRGGRRYEYWGQGTQVTVSS | low polyreactivity
QVQLVESCGGLVQTGGSLRLICAASRSNFDYYAMGWYRQAPWKETELVATNSYDFSTSYADSVKVLFTISRDNAKNTVFLQMKSLKPVDTAVYYCATDAGLYLEDAYEGPEQEFDYWGQGTQVTVSS | low polyreactivity
QVQLVESGGGLVQAGGSLRLSCAASGLTFQWYAMGWYRQAPGKERELVAAISIGGSTNYADSVKGRFTISRDNAKNTVYLQMNSLKPEDTAVYYCNKGSDFFWYDYDYWGQGTQVTVSS | low polyreactivity
QVQLVESGGGLVQAGGSLRLICAASGSTLFYNAMGWYRQAPGKERELVAAISSGVRTNYADSVKGRFTISRDNAKITVYLQMNSLKPEDTALYYCAAATYNQDYSYDYWGQGTQVTVSS | low polyreactivity
QVQLVESGGGLVQAGGSLSLSCAAYGFTFWKYAMGRSRQAPGKESELVAAISVSGGRTYYADSVKGRFTISGDNAKNTVYLQINSLKPEDTASYYVATSFRNGWGSYYYWGQGTQVTVSS | high polyreactivity
QVQLVESGRGLVQAGGSLRLSCAASGFTFYYYANGWYRQAPGKERELVAAISIGGSTYYADSVKGRFTISRDNAKNTVYLQMNCLKPEDTAVYYCNVVFTYWPPGTARYDYWGQGTQVTVSS | high polyreactivity
QVQLVESGGGLVQAGGSLRLSCAASGFIFSRYAMGWARQAPGKERELVAAIRFSGSMTYYADSVKGRFTISRDTAKNTVYLQMNSLKPEDTAVYYCAAALTYFKRVYYWGQGTQVTVSS | high polyreactivity
QVQLVESGGGLVQAGGSLRLRCAASGLTFVDNAMGWYSQAPGKERELVAAITKRGGRTYYADSVKGRFTISRDNAKNTVYLQMNSLKPEDPAVYYCARDSGNDSSRRLDYWGQGTQVTVSS | low polyreactivity
QVQLVESGGGLVQAGGSLRLSCAASGSIFDRNAMGWYRQAPGKERELVAAITSGGSTYYADSVKGRFTISRDNAKNTVYLQMNSLKPEDTAVYYCNADTDPPVPLYYWGQGTQVTVSS | low polyreactivity
QVQLVESGGGLVQAGGSLRLSCAASGRTFYTYAMGWYRQAPGKERELVAAISSGGSTYYADSVKGRFTISRDNAKNTVYLQMNSLKPEDTAVYYCAARYSKRVWYGYWGQGTQVTVSS | high polyreactivity
QVQLEESGGGLVQAGGSLRLSCAASGRIFLWYAMGWYRQAPGKERELVAAISSNGGSTRYADSVKGRFTISRDNAKNTVYLQMNSLKPEDTALYYCNADVHWNRYPYGGNGYGYWGQGTQVTVSS | low polyreactivity
QVQLVESGGGILQAGGSLRLSCAASGFISSVNAMGWYRQATGKERELVAAISDSATSTYYADSVKGRFTISRDNAKNTVYLQMNSLKPVDTALYYCAAYSHYVGYEYWGQGTQVTVSS | high polyreactivity
QVQLVESGGGLVQAGGSLRLSCAASGRTFYRYVMAWYRQAPRKERELVADITRSGGSTYYADSVKGRFTISRDNAKNTVYLQMNSLKPEDTAVYYCNKRYRVWFDYWGQGTQVTVSS | high polyreactivity
QVQLVESGGCLVQAGGILRLSCAASGSTFWIYAMGWYRQAPGKERELVAAITLRSGSTYYADSVKGRYTISRDNAKNTVFLQMNSLKPEDTAVYYCATDSWGVDRPNYNYWGQGTQVTVSS | low polyreactivity
QVQLVESARGIVQAGGSLRLSSAASGFIFYSSAMGGYRQAPGYERELVAGITSGGITSYADSVKGRFTISRDNAKNTVYLQMNSLKPEYTAVYYCAAVVVYQNYNYYYWGQGTQVTVSS | high polyreactivity
QVQLVESGGGLVQAGGSLRLSCPASGFIFRYYAMGWYRQAPGKERELVAAISWSGGSTYYADSVKGRFTISRDSAKNTVYLQIYSLKPEDTAVYYCGAEGFSYFIYWGQGSQVTVSS | high polyreactivity
QVQLVESGGGLVQAGGSLRLSCAASGFTFAYYTMGWYRQAPGKERELVAAINWSGGSTYYADSVKGRFTISRDYAKNTVYLQMNSLKPEDTAVYYCAAKSYWWATYDYWGQGTQVTVSS | high polyreactivity
QVQLVESGGGLVQAGGSLRLSCAASGRIIYGYAMGWYRQAHGKERELVASITATYYADSVKGRFTISLDNSKNTVYLQMNSLIPEDTAVYYCNAYLSPKHPLSRPDPTFEGGYRGQGTQVTVSS | low polyreactivity

Sequence | polyreactivity (PSR sort gate)
QVQLVESGGGLVQAGGSLRLSCAASGITFLSNAMGWYRQAPGKERELVAAIDWRGDSTYYADSVKGRFTISRDNAKNTGYLQMNRLKPEDTAVYYCNADISGSGQWDGYDYWGQGTQVTVSS | low polyreactivity
QVQLVESGGGLVKAGGILRLSCAASGSIFGRYVMGWYRPAPGKEREVVAAINRSGGRTYYADSVKGRFSISRDNAKYTVYLQMNSLKPEDTAVYYCATYTGSSASKEVPYDYWGQGTQVTVSS | high polyreactivity
QVQLGESGGGLVQAGGSLRLSCAASGSTFYRYAMGWYRQAPGKERELVAAITRGGGNTYYADSVKGRFTISRDNAKNTVYLQMNSLKPEDTAVYYCNTDPTLRSRVGIWGFDYWGQGTQVTVSS | high polyreactivity
QVQLVESGGGLVQAGGSLRLSCAASGQIFHSYAMGWSRQAPGKERELVAAISRGGGSTYYADSVKGRFTISRDNAKNTVYLQMNSLKPEDTAVYYCARENLTRYDYWGQGTQVTVSS | high polyreactivity
QVQLVESGGGLDQAGGSLRLSCAAYGGTLYYNAMGWYRQAPGKEREFVAAISSRGGRTYYADSVKGRFTISRDNAKNTVYLQMNSLKPEDTAVYYCAGSRTGRTYPSNRMYYWGQGTQVSVSS | high polyreactivity
QVQLVESGGVLVQAGGSLRLSCAASGSISFNAMGWYRQAPGKERELVAAITTSGGRTYYADSVKGRLTISRDNAKNTVSLQMNSLKPEDTAVYYCNVASKGRFARYAAEYVSWRQGTQVTVSS | high polyreactivity
QVQLVESGGGLVQAGGSLRLSCAASGFIFRAYVMGWYRQAPGKERELVAAISYRGGSTNYADSVKGRFTISRDTAKNTVYLHMNSLKPEDTAVYYCAADQVHKREYDYWGQGTQVTVSS | low polyreactivity
QVQLVESGGGLVQAGGSLRLSCAASGFIFKPYTMAWYRQAPGKERELVATITFSGGSTYYADSVKGRFTISRDNAKNTVYLQMNSLKPEDTAVYYCAAPRYYRGYAIYDYWGQGTQVTVSS | low polyreactivity
QVQLVESGGGLVQAGGSLRLSCAASGYTCDANAMGWYRQATGKERELVASISSISDSTDYADAVKGRITISRDNATNTVYLQMKILKPEDTAVYYCARSDVKPGRQERDYWGQGTQVTVSS | low polyreactivity
QVQLVESGGGLVQAGGSLRLSCAASGRIFYTNAMGCYRQAPGKERELVAAIRSGGITTYADSVKGRFTISRDNAKNTVYLQMNSLKPEDTAVYYCATRILSIYSIFGAYDYWGQGTQVTVSS | low polyreactivity
QVQLVESGGGLVQAGGSLRLSCADSGRTFGSNAMGWYRQAPGKERELVAAISSTVSTNYADSVKGRFTISRDNAKNTVYLQMNSLKPEDTAVYYCNVTRHYSYVSEYDYWGQGTQVTVSS | low polyreactivity
QVQLVESGGGLVLAGGRLRLSCADYRSIFAGYAMGWYRQAPGKERELVAAISSSGGRTYYADSVKGRFTISRDNAKNTVYLQMNSLKPEDTAVYYCAVSTYEEEYWGQGTQVTVSS | high polyreactivity
QVQLVESGGGLVQAGGSLRLSCAASGFTFGGNTMGWYRQAPGKERELVAAITQGGSSTYYADSVKGRFTISRDNAKNTVYLQMNSLKPEDTAVYYCNRGSPFGGLRPYDYWGQGTQVTVSS | high polyreactivity
QVQLVESGGGLVQAGGSLRLSCAASGRIFGYNAMGWYRQAPGTERELVAAISSSGGGTYYADSVKGRFTISRDNAKNTVYLQMNSLKPEDTAVYYCAAYTRPGRYDYWGQGTQVTVSS | high polyreactivity
QVQLVESGGGLVQARGSLRLSCAASGIIFYSYAMGWYRQAPGKEREFVAAITNSDGSTYYADSVKGRFTISRDNAKNTVYLQMNSLKPEDTAVYMYYWGQGTQVTVSS | low polyreactivity
QVQLAESGGGLVQAGGSLRLSCAASGRIFARNAMGWYRQAPGKERELVAAISWSGGRTYYADSVKGRFTISRDNAKNTVYLQMNSLKPEDTAVYYCAADHYPWWAWEFDYWGQGTQVTVSS | low polyreactivity
QVQLVESGGGLVQAGGSLRLSCAASGSTFVIYAMGWYRQAPGKERELVAAITISGGRTYYADSVKGRFTISRDKAKNTVYLQMNSLKPEDTAVYYCAATVVSTYPYGYGSSFVRDDYWGQGTQVTVSS | low polyreactivity
QFQLVESGGGLVQAGGSLRLSCAASGRIFSLNAMGWYRQAPGKESELVAAITSTGGTTYYADSVKGRFTISRDNAKNTVYLQMNSLKPEDTAVYYCAADYYSYAWHGWYYSDHYDYWGQGTQVTVSS | low polyreactivity
QVQLVESGGGLVQAGGSLRLSCAASGFIFGWNAMGWYRQAPGKERELVATITRGSTYYADSVKGRFTISRDNAKNTVYLQMNSLKPEDTAVYYCNVVYYGRWANYDYWGQGTQVTVSS | low polyreactivity
QVQLVESGGGLVQAGGSLRLSCAASGITFYIYAMGWYRQAPGKERELVAAISDDGSTHYADSVKGRFTISRDNAKNTVYLHMNSLKPEDTAVYYCNADYYWFFDFFDYDYWGQGTQVTVSS | low polyreactivity
QVQLVESGGCLVQAGGSLRLSCASSGRIFRGYAMGWSRQAPGKERELVAVISYSGTRTYYADSVKGRFTNSRDIAKNTVYLQMNSLKPEETAVYYCNARANGFKDGYWGQGTQVTVSA | high polyreactivity
